Biological target: Leptospira interrogans triosephosphate isomerase (Leptospira interrogans)
Experiment: SEC

stoichiometry N: 2
Substance: Leptospira interrogans triosephosphate isomerase (enzyme)
